Source: IntAct's records for PubMed 14668441

Biological target: arnt_human ARNT (UniProt P27540)

Endothelial PAS domain-containing protein 1 (Homo sapiens), Q99814 Q322E;M338E;Y342T
effect of a mutation on the interaction: disrupting interaction strength
